Target: human IL-2 (Miltenyi) (human) (UniProt P60568)
Experiment: SPR

Sequence of human IL-2 (Miltenyi) (human) (P60568 21-153 limits assumed): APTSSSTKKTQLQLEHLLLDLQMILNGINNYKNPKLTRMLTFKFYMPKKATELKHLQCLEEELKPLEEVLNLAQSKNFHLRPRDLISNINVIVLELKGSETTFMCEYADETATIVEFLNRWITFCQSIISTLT

Kd [nM] | kon [M⁻¹ s⁻¹] | koff [s⁻¹] | Binder
12 | 1.1e+07 | – | GS_hCD25.b (protein, part only; not given: Fusion partner and linker, part only) chain, part: ELCDDDPPEIPHATFKAMAYKEGTMLNCECKRGFRRIKSGSLYMLCTGNSSHSSWDNQCQCTSSATRNTTKQVTPQPEEQKERKTTEMQSPMQPVDQASLPGHCREPPPWENEATERIYHFVVGQMVYYQCVQGYRALHRGPAESVCKMTHGKTRWTQPQLICTGEMETSQFPGEEKPQASPEGRPESETSCLVTTTDFQIQ
12 | 5.4e+06 | 0.063 | GS_hCD25.d (protein, part only; not given: Fusion partner and linker, part only) chain, part: ELCDDDPPEIPHATFKAMAYKEGTMLNCECKRGFRRIKSGSLYMLCTGNSSHSSWDNQCQCTSSATRNTTKQVTPQPEEQKERKTTEMQSPMQPVDQASLPGHCREPPPWENEATERIYHFVVGQMVYYQCVQGYRALHRGPAESVCKMTHGKTRWTQPQLICTG
